# Paper PMC3186816 (Molecular & Cellular Proteomics : MCP, 2011)
# Where “and” joins values, the source holds several entries; their conditions need not be identical. Equal values may be shown once. Read-outs that look alike come from different tables or passages of the source.
# B1: phage p2 ORF18 (receptor-binding protein) (natural protein, Lactococcus phage p2)
# chain: TIKNFTFFSPNSTEFPVGSNNDGKLYMMLTGMDYRTIRRKDWSSPLNTALNVQYTNTSIIAGGRYFELLNETVALKGDSVNYIHANIDLTQTANPVSLSAETANNSNGVDINNGSGVLKVCFDIVTTSGTGVTSTKPIVQTSTLDSISVNDMTVSGSIDVPVQTLTVEAGNGLQLQLTKKNNDLVIVRFFGSVSNIQKGWNMSGTWVDRPFRPAAVQSLVGHFAGRDTSFHIDINPNGSITWWGANIDKTPIATRGNGSYFIK
# B2: phage p2 ORF15 (as in the samples BP1, BP2 and SBP2) (natural protein, Lactococcus phage p2)
# chain: VRQYKIHTNLDGTDDKVWDVTNGKVRFYQPSNLGLQSTNNIWQSNGIGVMGTRSITQPQIEFKLETFGESLEENYQLMKDFVNDILSKKFVTLEYQTEIFQVYADLALADVTKTEGYGKNGTFSEKITFDIITKWYTYENLTFDKIQNGKVIAGMSKIYGGTAPGNYKYIKGTSYTYYGESDIDRLSRWDIKEEIFSFMGILYPKLPKTPAGVRFLDDIGNEYTAIVFKTEQVQDYILINTDVNDETYQGWKGTTALNLFPVMDFERYRTRIIEKGQMELINLSKAEFKIKRKADFV
# B3: VHH5 neutralizing llama antibody fragment (VHH)
# VHH: QVQLQESGGGLVQAGGSLRLSCTASRRTGSNWCMGWFRQLAGKEPELVVALNFDYDMTYYADSVKGRFTVSRDSGKNTVYLQMNSLKPEDTAIYYCAARSGGFSSNRELYDGWGQGTQVTVSS
# How the values were obtained:
# [1] = molecular target: Tal-N (TP901-1 ORF47 N-terminal region, residues 1-386) (Lactococcus phage TP901-1); test: native MS
# [2] = molecular target: Tal-N (TP901-1 ORF47 N-terminal region, residues 1-386) (Lactococcus phage TP901-1); test: denaturing ESI-MS
# [3] = molecular target: phage p2 ORF15 (as in the sample SBP1) (Lactococcus phage p2) (UniProt D3WAD3); test: native MS
# [4] = molecular target: phage TP901-1 ORF49 (BppL), as in the Tripod sample (Lactococcus phage TP901-1); test: native MS
# [5] = molecular target: phage TP901-1 ORF49 (BppL, the RBP), as in the sample TP1 (Lactococcus phage TP901-1); test: native MS
# [6] = molecular target: phage TP901-1 ORF48 (BppU), as in the Tripod sample (Lactococcus phage TP901-1); test: native MS
# [7] = molecular target: phage TP901-1 ORF46 (Dit) (Lactococcus phage TP901-1); test: native MS
# [8] = molecular target: phage TP901-1 ORF46 (Dit) (Lactococcus phage TP901-1); test: denaturing ESI-MS
# [9] = molecular target: phage TP901-1 ORF46 (Dit) (Lactococcus phage TP901-1); test: native MS; remark: listed apart in the source
# [10] = molecular target: phage TP901-1 ORF46 (Dit) (Lactococcus phage TP901-1); test: SEC-MALS
# [11] = molecular target: phage p2 baseplate subcomplex SBP1 [6xORF15 + 3xORF16] (Lactococcus phage p2) (UniProt D3WAD3); test: native MS
# [12] = molecular target: phage p2 ORF16 (Lactococcus phage p2); test: native MS
# [13] = molecular target: phage p2 ORF16 (Lactococcus phage p2); test: native MS; remark: listed apart in the source
# [14] = molecular target: phage TP901-1 ORF48 (BppU), as in the samples TP1 and Dit-BppU (Lactococcus phage TP901-1); test: native MS
# [15] = molecular target: phage TP901-1 ORF48 (BppU), as in the samples TP1 and Dit-BppU (Lactococcus phage TP901-1); test: native MS; remark: listed apart in the source
# [16] = molecular target: the molecule itself; test: native MS
# [17] = molecular target: the molecule itself; test: denaturing ESI-MS
# [18] = molecular target: the molecule itself; test: native MS; remark: listed apart in the source
# [19] = molecular target: the molecule itself; test: native MS; remark: listed apart in the source
# [20] = molecular target: T1, phage p2 baseplate [6xORF15 + 3xORF16 + 18xORF18] (Lactococcus phage p2); test: native MS
# T1 chain 1: B2 chain
# T1 chain 2: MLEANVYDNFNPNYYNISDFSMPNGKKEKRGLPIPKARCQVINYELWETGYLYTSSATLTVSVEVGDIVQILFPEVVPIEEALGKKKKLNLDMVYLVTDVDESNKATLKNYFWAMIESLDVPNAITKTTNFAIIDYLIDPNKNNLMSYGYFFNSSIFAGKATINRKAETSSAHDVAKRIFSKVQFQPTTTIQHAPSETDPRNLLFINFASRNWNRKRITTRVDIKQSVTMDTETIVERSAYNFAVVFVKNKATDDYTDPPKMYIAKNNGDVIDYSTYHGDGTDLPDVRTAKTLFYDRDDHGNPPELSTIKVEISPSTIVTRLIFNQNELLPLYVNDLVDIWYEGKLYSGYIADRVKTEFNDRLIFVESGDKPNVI
# T1 chain 3: B1 chain
molecule,measurement,setting,value
"Tal-N (TP901-1 ORF47 N-terminal region, residues 1-386) (domain or fragment)",stoichiometry N,[1],2 and 3
same,stoichiometry N,[2],2 and 3
phage p2 ORF15 (as in the sample SBP1) (from UniProt D3WAD3 2-298) (natural protein),stoichiometry N,[3],6
"phage TP901-1 ORF49 (BppL), as in the Tripod sample (natural protein)",stoichiometry N,[4],3
"phage TP901-1 ORF49 (BppL, the RBP), as in the sample TP1 (natural protein)",stoichiometry N,[5],3 and 6
"phage TP901-1 ORF48 (BppU), as in the Tripod sample (natural protein)",stoichiometry N,[6],3
phage TP901-1 ORF46 (Dit) (natural protein),stoichiometry N,[7],6
same,stoichiometry N,[8],2 and 3 and 6
same,stoichiometry N,[9],6 and 12
same,stoichiometry N,[10],12
phage p2 baseplate subcomplex SBP1 [6xORF15 + 3xORF16] (from UniProt D3WAD3 2-298),stoichiometry N,[11],2
phage p2 ORF16 (natural protein),stoichiometry N,[12],2 and 3
same,stoichiometry N,[13],3
"phage TP901-1 ORF48 (BppU), as in the samples TP1 and Dit-BppU (natural protein)",stoichiometry N,[14],3
same,stoichiometry N,[15],3
B1,stoichiometry N,[16],3
same,stoichiometry N,[17],2
same,stoichiometry N,[18],3
B2,stoichiometry N,[19],6
B3,stoichiometry N,[20],18
